Laboratory results reported in PMC11514446, “Transcription start site scanning requires the fungi-specific hydrophobic loop of Tfb3” (Nucleic Acids Research, 2024).

B1: Tfa1 (subunit of TFIIE) (natural protein, S. cerevisiae, UniProt P36100 1-482, looked up)
chain: MDRPIDDIVKNLLKFVVRGFYGGSFVLVLDAILFHSVLAEDDLKQLLSINKTELGPLIARLRSDRLISIHKQREYPPNSKSVERVYYYVKYPHAIDAIKWKVHQVVQRLKDDLDKNSEPNGYMCPICLTKYTQLEAVQLLNFDRTEFLCSLCDEPLVEDDSGKKNKEKQDKLNRLMDQIQPIIDSLKKIDDSRIEENTFEIALARLIPPQNQSHAAYTYNPKKGSTMFRPGDSAPLPNLMGTALGNDSSRRAGANSQATLHINITTASDEVAQRELQERQAEEKRKQNAVPEWHKQSTIGKTALGRLDNEEEFDPVVTASAMDSINPDNEPAQETSYQNNRTLTEQEMEERENEKTLNDYYAALAKKQAKLNKEEEEEEEEEEDEEEEEEEEMEDVMDDNDETARENALEDEFEDVTDTAGTAKTESNTSNDVKQESINDKTEDAVNATATASGPSANAKPNDGDDDDDDDDDEMDIEFEDV
notes: Tfa1, S. cerevisiae, subunit of TFIIE; Stood in the assay as a subunit of TFIIE inside the reconstituted PIC-ΔTFIIK
B2: Tfa2 (subunit of TFIIE) (natural protein, S. cerevisiae, UniProt P36145 1-328, looked up)
chain: MSKNRDPLLANLNAFKSKVKSAPVIAPAKVGQKKTNDTVITIDGNTRKRTASERAQENTLNSAKNPVLVDIKKEAGSNSSNAISLDDDDDDEDFGSSPSKKVRPGSIAAAALQANQTDISKSHDSSKLLWATEYIQKKGKPVLVNELLDYLSMKKDDKVIELLKKLDRIEFDPKKGTFKYLSTYDVHSPSELLKLLRSQVTFKGISCKDLKDGWPQCDETINQLEEDSKILVLRTKKDKTPRYVWYNSGGNLKCIDEEFVKMWENVQLPQFAELPRKLQDLGLKPASVDPATIKRQTKRVEVKKKRQRKGKITNTHMTGILKDYSHRV
notes: Tfa2, S. cerevisiae, subunit of TFIIE; contains the WH domain; Stood in the assay as a subunit of TFIIE inside the reconstituted PIC-ΔTFIIK
B3: Rpb4 (subunit of RNA polymerase II) (natural protein, S. cerevisiae, UniProt P20433 1-221, looked up)
chain: MNVSTSTFQTRRRRLKKVEEEENAATLQLGQEFQLKQINHQGEEEELIALNLSEARLVIKEALVERRRAFKRSQKKHKKKHLKHENANDETTAVEDEDDDLDEDDVNADDDDFMHSETREKELESIDVLLEQTTGGNNKDLKNTMQYLTNFSRFRDQETVGAVIQLLKSTGLHPFEVAQLGSLACDTADEAKTLIPSLNNKISDDELERILKELSNLETLY
notes: Rpb4, S. cerevisiae, subunit of RNA polymerase II; Stood in the assay as a subunit of pol II inside the reconstituted PIC-ΔTFIIK

target: T1, Rad3 (subunit of core TFIIH / TFIIH-ΔTFIIK) (S. cerevisiae, UniProt P06839 1-778); assay: cryo-EM structure; PIC-ΔTFIIK reconstituted from purified factors (TFIIA, TFIIB, TBP, TFIIE, TFIIF, TFIIH-ΔTFIIK, pol II, TFIIS) on a HIS4 promoter DNA fragment, nucleotide-free; glycerol gradient with 0-0.125% glutaraldehyde fixation; two forms from 3D classification (form 1 at 3.7 Å, form 2 at 3.8 Å); details: both partners purified
T1 construct: Rad3, S. cerevisiae, subunit of the seven-subunit core TFIIH; contains the ARCH domain; Stood in the assay as a subunit of core TFIIH inside the reconstituted PIC-ΔTFIIK; also called XPD of metazoan TFIIH (homolog)
T1 sequence (looked up): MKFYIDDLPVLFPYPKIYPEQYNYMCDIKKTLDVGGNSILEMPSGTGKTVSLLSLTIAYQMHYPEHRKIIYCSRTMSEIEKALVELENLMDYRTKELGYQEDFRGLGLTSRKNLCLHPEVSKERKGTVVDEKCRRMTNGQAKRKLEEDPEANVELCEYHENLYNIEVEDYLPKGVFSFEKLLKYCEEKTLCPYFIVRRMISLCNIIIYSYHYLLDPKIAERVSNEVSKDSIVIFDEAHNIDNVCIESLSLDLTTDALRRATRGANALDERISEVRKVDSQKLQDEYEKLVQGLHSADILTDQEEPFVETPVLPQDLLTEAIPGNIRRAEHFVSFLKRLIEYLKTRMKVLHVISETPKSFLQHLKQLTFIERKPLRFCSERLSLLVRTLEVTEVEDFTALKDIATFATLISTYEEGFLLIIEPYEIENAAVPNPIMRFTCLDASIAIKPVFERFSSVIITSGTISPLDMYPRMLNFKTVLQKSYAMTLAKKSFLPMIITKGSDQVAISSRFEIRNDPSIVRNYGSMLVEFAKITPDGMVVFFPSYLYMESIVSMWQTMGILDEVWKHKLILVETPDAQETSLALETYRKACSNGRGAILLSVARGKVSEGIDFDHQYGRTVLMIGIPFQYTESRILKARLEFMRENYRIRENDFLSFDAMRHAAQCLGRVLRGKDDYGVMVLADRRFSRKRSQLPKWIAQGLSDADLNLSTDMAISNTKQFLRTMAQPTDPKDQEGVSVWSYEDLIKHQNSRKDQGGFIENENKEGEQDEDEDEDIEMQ

Binding result, binds:
B1, B2, B3
